Results: patent publication US20220275067A1 (PROTHENA BIOSCIENCES, published 2022)
Where no end group is shown, it is not given here. The star is where a group is joined. Biotin = O=C1N[C@H]2[C@H](CS[C@H]2CCCCC(=O)*)N1

B1: mouse 10C12 antibody (antibody, mouse IgG2a, V domains shown)
VH: EVQLQQSGAELVRPGASVKLSCTASGFNIKDDYMNWVKQRPERGLEWIGWIDPENGDTEYASKFQGKATMTADTSSNTAYLQFSSLTSEDTAVYYCTTSNGWGQGTLVTVST
VL: DIVMTQAAFSNPVTLGTSASISCRSSKSLLHSNGITYLYWYLQKPGQSPQLLIYQMSNLASGVPDRFSSSGSGTDFTLRISRVEAEDVGVYYCAQNLELPLTFGAGTKLELK
notes: also called m10C12
B2: mouse 2D11 antibody (antibody, mouse IgG2a, V domains shown)
VH: EVQLQQSGAELVRPGASVKLSCTASGFNIKDDYMNWVKQRPERGLEWIGWIDPENGDTEYASKFQGKATMTADTSSNTAYLQFSSLTSEDTAVYYCTTSNGWGQGTLVTVST
VL: DIVMTQAAFSNPVTLGTSASISCRSSKSLLHSNGITYLYWYLQKPGQSPQLLIYQMSNLASGVPDRFSSSGSGTDFTLRISRVEAEDVGVYYCAQNLELPLTFGAGTKLELK
B3: mouse 17C12 antibody (antibody, mouse IgG2a, V domains shown)
VH: KIQLQQSGAELVRPGASVKLSCTASAFNIKDDYMNWVKQRPERGLEWIGWIDPENGDTKYASKFQGKATMTADTSSNTAYLQLSSLTSEDTAVYYCTTSNGWGQGTLVTVSA
VL: DVVMTQTPLTLSVTIGQPASISCTSSQSLLHSNRKTYLHWLLQRPGQSPKLLIYLVSKLESGVPDRFSGSGSGTDFTLKISRVEAEDLGVYYCLQTTHFPRTFGGGTKLEIK
notes: also called m17C12
B4: mouse 9F5 antibody (antibody, mouse IgG1, V domains shown)
VH: EVQLQQSGAELVRPGASVKLSCTASGFNIKDDYMNWVKQRPERGLEWIGWIDPENGDTEYASKFQGKATMTADTSSNTAYLQFSSLTSEDTAVYYCTTSNGWGQGTLVTVST
VL: DIVMTQAAFSNPVTLGTSASISCRSSKSLLHSNGITYLYWYLQKPGQSPQLLIYQMSNLASGVPDRFSSSGSGTDFTLRISRVEAEDVGVYYCAQNLELPLTFGAGTKLELK
notes: also called m9F5; murine 9F5
B5: mouse 12C4 antibody (antibody, mouse IgG2a, V domains shown)
VH: EVQLQQSGAELVRPGASVKLSCTASGFNIKDDYMNWVRQRPERGLEWIGWIDPENGDTAYASKFQGKATMTADTSSNTAYLQFSSLTSEDSAVYYCTTSNGWGQGTLVTVSA
VL: DIVMTQAAFSNPVTLGTSASISCRSSKSLLHSNGITYLYWYLQKPGQSPQLLIYQMSNLASGVPDRFSSSGSGTDFTLRISRVEAEDVGVYYCAQNLELPLTFGAGTKLELK
notes: also called m12C4

Columns and labels:
human tau oligomers [1] = target: T1, human tau oligomers (human, UniProt P10636-6 2-383, limits assumed); experiment: cell-based or functional assay
[2] = target: T2, recombinant human 4R0N tau (human, UniProt P10636 2-758); experiment: SPR Biacore; antibody captured by anti-mouse antibody; tau as analyte; global 1:1 fit
T2 construct: also called recombinant 4R0N human tau; P10636-6
Procedure: Surface plasmon resonance (SPR) analysis using Biacore was performed by immobilizing an anti-mouse (GE Lifesciences) antibody to a CM3 chip with EDC/NHS. Antibodies were then captured to the anti-mouse surface to equivalent levels. Regeneration was performed with 2 30 s injections of 10 mM Glycine pH 1.7. Various concentrations ranging from 500 to 0.122 nM, diluted in […] dilutions, of recombinant human 4R0N tau were flowed over the sensor for a 150s association phase and 300 s dissociation phase. Data was blank subtracted to both an irrelevant sensor not containing test antibody to account for irrelevant binding to the prepared sensor surface, and to the mobile phase vehicle to account for the dissociation of test antibody from the anti-mouse capture. Data was then analyzed with onboard evaluation software using a global 1:1 fit.

[3] = target: T3, biotinylated 15 amino acid tau peptide, residues 383-397 (human); experiment: ELISA, biotinylated peptide on streptavidin plate
T3 peptide: Biotin-KAKTDHGAEIVYKSP
Procedure: (§1) Peptides contained 15 amino acids, with a 5 amino acid overlap. To enable binding to a streptavidin surface, peptides also contained an N-terminal biotin. Peptides were incubated on a streptavidin-coated plate, and the plate was blocked with 1% BSA in 1× PBS. After washing, antibodies were incubated on the plates for 1 hour at room temperature and washed. Plates were then coated with goat anti-mouse horseradish peroxidase (HRP), and washed. Plates were developed with OPD, and absorbance was read at 490 nm. […]

[4] = target: T4, biotinylated 15 amino acid tau peptide, residues 302-316 (human); experiment: ELISA, biotinylated peptide on streptavidin plate
T4 peptide: Biotin-GGGSVQIVYKPVDLS
Procedure: as §1

human tau oligomers [5] = target: T1, human tau oligomers; experiment: cell-based or functional assay; remark: listed apart in the source

T2 sequence (P10636 other isoform, or with tags, fused parts or gaps limits assumed): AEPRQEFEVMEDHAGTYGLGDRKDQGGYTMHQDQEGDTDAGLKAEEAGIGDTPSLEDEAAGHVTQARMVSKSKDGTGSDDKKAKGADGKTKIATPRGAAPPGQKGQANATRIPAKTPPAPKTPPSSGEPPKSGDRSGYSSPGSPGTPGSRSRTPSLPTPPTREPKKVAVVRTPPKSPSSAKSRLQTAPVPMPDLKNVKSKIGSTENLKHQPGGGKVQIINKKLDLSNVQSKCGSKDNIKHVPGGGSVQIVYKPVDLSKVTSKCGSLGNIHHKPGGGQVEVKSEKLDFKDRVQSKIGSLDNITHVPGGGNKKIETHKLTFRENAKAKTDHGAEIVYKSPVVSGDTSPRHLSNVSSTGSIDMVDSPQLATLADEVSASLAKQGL
T1 sequence (P10636 other isoform, or with tags, fused parts or gaps limits assumed): as above

Binder	LDH released by primary neurons with tau oligomers, antibody at 0.2 molar equivs (human tau oligomers [1])	LDH released by primary neurons with tau oligomers, antibody at 0.33 molar equivs (human tau oligomers [1])	LDH released by primary neurons with tau oligomers, antibody at 1 molar equivs (human tau oligomers [1])	LDH released by primary neurons with tau oligomers, antibody at 3 molar equivs (human tau oligomers [1])	LDH released by primary neurons with tau oligomers, antibody at 5 molar equivs (human tau oligomers [1])	Kd [2]	koff [2]	kon [2]	binding result [3]	binding result [4]	MTT viability of primary neurons with tau oligomers, antibody at 0.2 molar equivs (human tau oligomers [5])	MTT viability of primary neurons with tau oligomers, antibody at 0.33 molar equivs (human tau oligomers [5])	MTT viability of primary neurons with tau oligomers, antibody at 1 molar equivs (human tau oligomers [5])	MTT viability of primary neurons with tau oligomers, antibody at 3 molar equivs (human tau oligomers [5])	MTT viability of primary neurons with tau oligomers, antibody at 5 molar equivs (human tau oligomers [5])
B1	140 % of control	129 % of control	109 % of control	101 % of control	95.1 % of control	0.375 nM	0.00245 s⁻¹	6.53e+06 M⁻¹ s⁻¹	binds	binds	47.1 % of control	51.3 % of control	56.4 % of control	69.2 % of control	86.8 % of control
B2	177 % of control	148 % of control	131 % of control	109 % of control	115 % of control	0.318 nM	0.00221 s⁻¹	6.93e+06 M⁻¹ s⁻¹	binds	binds	52.8 % of control	59.5 % of control	50.9 % of control	64 % of control	92.2 % of control
B3	–	–	–	–	–	0.482 nM	0.00194 s⁻¹	4.03e+06 M⁻¹ s⁻¹	binds	binds	–	–	–	–	–
B4	155 % of control	152 % of control	116 % of control	95.9 % of control	91.4 % of control	0.35 nM	0.00224 s⁻¹	6.39e+06 M⁻¹ s⁻¹	binds	binds	47.4 % of control	58 % of control	64.9 % of control	92.6 % of control	93.1 % of control
B5	153 % of control	152 % of control	124 % of control	110 % of control	108 % of control	0.363 nM	0.00206 s⁻¹	5.69e+06 M⁻¹ s⁻¹	binds	binds	48.6 % of control	53.2 % of control	62.3 % of control	78.7 % of control	81.1 % of control
